# Reference: patent publication US20250163167A1 (SYNTHEKINE, published 2025)
# Changes are numbered by the printed parent chain.
# B1: hIL10Rb VHH-5 (VHH)
# VHH: QVQLQESGGGLVQPGGSLRLSCAASGYTYSSYCMGWFRQAPGKEREGVAHIDSDGSTTYADSVKGRFTISKDNAKNTLYLQMNSLKPEDTAMYYCAADPIPGPGYCDGGPNKYWGQGTQVTVSS
# notes: Phage clone, periplasmic extract
# B2: hIL10Rb VHH-25 (VHH)
# VHH: B1 VHH with L11S, P14A, V48I, K112N
# notes: as for B1
# B3: hIL10Rb VHH-22 (VHH)
# VHH: B1 VHH with L11S, P14A, Y29D, S31R, Q39K, T58S
# notes: as for B1
# B4: hIL10Rb VHH-13 (VHH)
# VHH: B1 VHH with L11S, P14A, T58S, K112N
# notes: as for B1
# B5: hIL10Rb VHH-24 (VHH)
# VHH: B1 VHH with L11S, P14A, R19K, K112N
# notes: as for B1
# B6: hIL10Rb VHH-10 (VHH)
# VHH: B1 VHH with T68A
# notes: as for B1
# B7: hIL10Rb VHH-20 (VHH)
# VHH: B1 VHH with L11S, P14A, T68A
# notes: as for B1
# B8: hIL10Ra VHH2 (VHH)
# VHH: QVQLQESGGGSVQAGGSLRLSCVASRYLYSTNYMAWFRQSPGKEREAVAVIYTASGATLYTDSVKGRFTISQDNAKMTVYLQMNRLKSEDTAMYYCAAVRKTDSYLFDAQSFTYWGQGTQVTVSS
# notes: as for B1
# B9: hIL10Ra VHH5 (VHH)
# VHH: B8 VHH with V12I, R26K, V50A, T61S, V64N, R85S, D103G
# notes: as for B1
# B10: hIL10Ra VHH4 (VHH)
# VHH: B8 VHH with V12I, V23A, T31I, N32D, A47P, V48A, L59F, T61P, R85S
# notes: as for B1
# B11: hIL10Ra VHH3 (VHH)
# VHH: B8 VHH with V12I
# notes: as for B1
# B12: hIL10Rb VHH-17 (VHH)
# VHH: QVQLQESGGGSVQAGGSLRLSCTVSRYTASVNYMGWFRQAPGKEREGVATIFTGAGTTYYANSVKGRFTISRDNAKNTAYLQMNSLKPEDTAMYYCAVDFRGGLLYRPAYEYTYRGQGTQVTVSS
# notes: as for B1
# B13: hIL10Ra VHH18 (VHH)
# VHH: QVQLQESGGGSVQAGGSLRLSCAVSGYTYNSNCMGWFRQAPGKEREGVATIYTGVGSTYYADSVKGRFTISQDNAKNTVYLQMNSLKPEDTAMYYCAAEPLSRVYGGSCPTPTFGYWGQGTQVTVSS
# notes: as for B1
# B14: hIL10Ra VHH13 (VHH)
# VHH: B13 VHH with T28S, N30S, Y52H, V55G, V104L
# notes: as for B1
# B15: hIL10Ra VHH7 (VHH)
# VHH: B13 VHH with Y29F
# notes: as for B1
# B16: hIL10Ra VHH11 (VHH)
# VHH: QVQLQESGGGSVQAGGSLRLSCGASRYTYSSYCMGWFRQAPGKEREGVAVIDSDGSTSYADSVKGRFTISKDNGKNTLYLQMNSLKPEDTAMYYCAADLGHYRPPCGVLYLGMDYWGKGTQVTVSS
# notes: as for B1
# B17: hIL10Ra VHH16 (VHH)
# VHH: QVQLQESGGGSVQAGGSLRLACAASRYTYSNYCMGWFRQAPGKEREGVATIDSDGNTSYADSVKGRFTISRDNAKNTLYLQMNSLKPGDTAMYYCAADLGHYRPPCGAYYYGMDYWGKGTQVTVSS
# notes: as for B1
# B18: hIL10Ra VHH15 (VHH)
# VHH: B16 VHH with R26G, S31G
# notes: as for B1
# B19: hIL10Rb VHH-9 (VHH)
# VHH: QVQLQESGGGLVQPGGSLRLSCAASGYTYSSGCMGWFRQAPGKEREGVATINSDGSTNYADSVKGRFTISKDNAKNTLYLQMNSLKPEDTAMYYCAAEPYCSGGYPRWSVAEFGYWGQGTQVTVSS
# notes: as for B1
# B20: hIL10Rb VHH-11 (VHH)
# VHH: B19 VHH with L11S, P14A, G32Y, E44G, T50A, N52D, N58R, P106K, W108T, S109M
# notes: as for B1
# B21: hIL10Rb VHH-18 (VHH)
# VHH: QVQLQESGGGSVQAGGSLRLSCAASGDTYSSYCMGWFRQAPGKEREGVAFIDSDGSTRYADSVEGRFTISKDNAKNTLYLQMNSLKPEDTAMYYCAAEPYCSGGYHRKEMAEFGYWGQGTQVTVSS
# notes: as for B1
# B22: hIL10Rb VHH-14 (VHH)
# VHH: B19 VHH with L11S, P14A, A91G
# notes: as for B1
# B23: hIL10Rb VHH-23 (VHH)
# VHH: QVQLQESGGGSVQAGGSLRLSCAASGYTYSSYCMGWFRQAPGKEREGVAAIDSDGSTRYADSVKGRFTISKDNAKKILYLQMNSLKVEDTAMYYCAAEPYCSGGYKRTMVAEFGFWGQGTQVTVSS
# notes: as for B1
# Assays:
# hIL10Rb ECD antigen = target: T1, hIL10Rb ECD antigen (human, UniProt Q08334 20-220); experiment: periplasmic extract ELISA (PE-ELISA) of phage clones
# T1 construct: Antigen of biopanning and PE-ELISA; also called extracellular domain of hIL10Rb
# T1 sequence: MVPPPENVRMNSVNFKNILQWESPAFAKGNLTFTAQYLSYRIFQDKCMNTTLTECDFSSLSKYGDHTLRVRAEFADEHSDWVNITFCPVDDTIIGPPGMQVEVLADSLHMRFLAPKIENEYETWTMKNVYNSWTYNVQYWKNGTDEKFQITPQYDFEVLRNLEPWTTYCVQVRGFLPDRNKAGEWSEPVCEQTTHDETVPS
# hIL10Ra ECD antigen = target: T2, hIL10Ra ECD antigen (human, UniProt Q13651 22-235); experiment: as above
# T2 construct: also called ECD of IL10Ra; extracellular domain of hIL10Ra
# T2 sequence: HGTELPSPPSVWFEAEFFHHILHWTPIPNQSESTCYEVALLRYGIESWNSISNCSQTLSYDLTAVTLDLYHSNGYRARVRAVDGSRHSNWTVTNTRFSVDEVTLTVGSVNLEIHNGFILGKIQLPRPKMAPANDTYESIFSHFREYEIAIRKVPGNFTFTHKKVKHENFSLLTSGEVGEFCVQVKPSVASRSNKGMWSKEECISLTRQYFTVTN
Binder,binding result (hIL10Rb ECD antigen),binding result (hIL10Ra ECD antigen)
B1,binds,
B2,binds,
B3,binds,
B4,binds,
B5,binds,
B6,binds,
B7,binds,
B8,,binds
B9,,binds
B10,,binds
B11,,binds
B12,binds,
B13,,binds
B14,,binds
B15,,binds
B16,,binds
B17,,binds
B18,,binds
B19,binds,
B20,binds,
B21,binds,
B22,binds,
B23,binds,
